Data reported in paper PMC2475608.

B1: EcoR124I HsdR subunit, wild type (enzyme)
chain: MTHQTHTIAESNNFIVLDKYIKAEPTGDSYQSESDLERELIQDLRNQGYEFISVKSQSAMLANVREQLQNLNGVVFNDSEWRRFTEQYLDNPSDGILDKTRKIHIDYICDFIFDDERLENIYLIDKKNLMRNKVQIIQQFEQAGSHANRYDVTILVNGLPLVQIELKKRGVAIREAFNQIHRYSKESFNSENSLFKYLQLFVISNGTDTRYFANTTKRDKNSFDFTMNWAKSDNTLIKDLKDFTATCFQKHTLLNVLVNYSVFDSSQTLLVMRPYQIAATERILWKIKSSFTAKNWSKPESGGYIWHTTGSGKTLTSFKAARLATELDFIDKVFFVVDRKDLDYQTMKEYQRFSPDSVNGSENTAGLKRNLDKDDNKIIVTTIQKLNNLMKAESDLPVYNQQVVFIFDECHRSQFGEAQKNLKKKFKRYYQFGFTGTPIFPENALGSETTASVFGRELHSYVITDAIRDEKVLKFKVDYNDVRPQFKSLETETDEKKLSAAENQQAFLHPMRIQEITQYILNNFRQKTHRTFPGSKGFNAMLAVSSVDAAKAYYATFKRLQEEAANKSATYKPLRIATIFSFAANEEQNAIGEISDETFDTSAMDSSAKEFLDAAIREYNSHFKTNFSTDSNGFQNYYRDLAQRVKNQDIDLLIVVGMFLTGFDAPTLNTLFVDKNLRYHGLMQAFSRTNRIYDATKTFGNIVTFRDLERSTIDAITLFGDKNTKNVVLEKSYTEYMEGFTDAATGEAKRGFMTVVSELEQRFPDPTSIESEKEKKDFVKLFGEYLRAENILQNYDEFATLKALQQIDLSDPVAVEKFKAEHYVDDEKFAELQTIRLPADRKIQDYRSAYNDIRDWQRREKEAEKKEKSTTDWDDVVFEVDLLKSQEINLDYILGLIFEHNRQNKGKGEMIEEVKRLIRSSLGNRAKEGLVVDFIQQTNLDDLPDKASIIDAFFTFAQREQQREAEALIKEENLNEDAAKRYIRTSLKREYATENGTELNETLPKLSPLNPQYKTKKQAVFQKIVSFIEKFKGVGGKI
B2: EcoR124I HsdR Q179K (enzyme)
chain: MTHQTHTIAESNNFIVLDKYIKAEPTGDSYQSESDLERELIQDLRNQGYEFISVKSQSAMLANVREQLQNLNGVVFNDSEWRRFTEQYLDNPSDGILDKTRKIHIDYICDFIFDDERLENIYLIDKKNLMRNKVQIIQQFEQAGSHANRYDVTILVNGLPLVQIELKKRGVAIREAFNKIHRYSKESFNSENSLFKYLQLFVISNGTDTRYFANTTKRDKNSFDFTMNWAKSDNTLIKDLKDFTATCFQKHTLLNVLVNYSVFDSSQTLLVMRPYQIAATERILWKIKSSFTAKNWSKPESGGYIWHTTGSGKTLTSFKAARLATELDFIDKVFFVVDRKDLDYQTMKEYQRFSPDSVNGSENTAGLKRNLDKDDNKIIVTTIQKLNNLMKAESDLPVYNQQVVFIFDECHRSQFGEAQKNLKKKFKRYYQFGFTGTPIFPENALGSETTASVFGRELHSYVITDAIRDEKVLKFKVDYNDVRPQFKSLETETDEKKLSAAENQQAFLHPMRIQEITQYILNNFRQKTHRTFPGSKGFNAMLAVSSVDAAKAYYATFKRLQEEAANKSATYKPLRIATIFSFAANEEQNAIGEISDETFDTSAMDSSAKEFLDAAIREYNSHFKTNFSTDSNGFQNYYRDLAQRVKNQDIDLLIVVGMFLTGFDAPTLNTLFVDKNLRYHGLMQAFSRTNRIYDATKTFGNIVTFRDLERSTIDAITLFGDKNTKNVVLEKSYTEYMEGFTDAATGEAKRGFMTVVSELEQRFPDPTSIESEKEKKDFVKLFGEYLRAENILQNYDEFATLKALQQIDLSDPVAVEKFKAEHYVDDEKFAELQTIRLPADRKIQDYRSAYNDIRDWQRREKEAEKKEKSTTDWDDVVFEVDLLKSQEINLDYILGLIFEHNRQNKGKGEMIEEVKRLIRSSLGNRAKEGLVVDFIQQTNLDDLPDKASIIDAFFTFAQREQQREAEALIKEENLNEDAAKRYIRTSLKREYATENGTELNETLPKLSPLNPQYKTKKQAVFQKIVSFIEKFKGVGGKI
B3: EcoR124I HsdR Y183A (enzyme)
chain: MTHQTHTIAESNNFIVLDKYIKAEPTGDSYQSESDLERELIQDLRNQGYEFISVKSQSAMLANVREQLQNLNGVVFNDSEWRRFTEQYLDNPSDGILDKTRKIHIDYICDFIFDDERLENIYLIDKKNLMRNKVQIIQQFEQAGSHANRYDVTILVNGLPLVQIELKKRGVAIREAFNQIHRASKESFNSENSLFKYLQLFVISNGTDTRYFANTTKRDKNSFDFTMNWAKSDNTLIKDLKDFTATCFQKHTLLNVLVNYSVFDSSQTLLVMRPYQIAATERILWKIKSSFTAKNWSKPESGGYIWHTTGSGKTLTSFKAARLATELDFIDKVFFVVDRKDLDYQTMKEYQRFSPDSVNGSENTAGLKRNLDKDDNKIIVTTIQKLNNLMKAESDLPVYNQQVVFIFDECHRSQFGEAQKNLKKKFKRYYQFGFTGTPIFPENALGSETTASVFGRELHSYVITDAIRDEKVLKFKVDYNDVRPQFKSLETETDEKKLSAAENQQAFLHPMRIQEITQYILNNFRQKTHRTFPGSKGFNAMLAVSSVDAAKAYYATFKRLQEEAANKSATYKPLRIATIFSFAANEEQNAIGEISDETFDTSAMDSSAKEFLDAAIREYNSHFKTNFSTDSNGFQNYYRDLAQRVKNQDIDLLIVVGMFLTGFDAPTLNTLFVDKNLRYHGLMQAFSRTNRIYDATKTFGNIVTFRDLERSTIDAITLFGDKNTKNVVLEKSYTEYMEGFTDAATGEAKRGFMTVVSELEQRFPDPTSIESEKEKKDFVKLFGEYLRAENILQNYDEFATLKALQQIDLSDPVAVEKFKAEHYVDDEKFAELQTIRLPADRKIQDYRSAYNDIRDWQRREKEAEKKEKSTTDWDDVVFEVDLLKSQEINLDYILGLIFEHNRQNKGKGEMIEEVKRLIRSSLGNRAKEGLVVDFIQQTNLDDLPDKASIIDAFFTFAQREQQREAEALIKEENLNEDAAKRYIRTSLKREYATENGTELNETLPKLSPLNPQYKTKKQAVFQKIVSFIEKFKGVGGKI
B4: EcoR124I HsdR Y183F (enzyme)
chain: MTHQTHTIAESNNFIVLDKYIKAEPTGDSYQSESDLERELIQDLRNQGYEFISVKSQSAMLANVREQLQNLNGVVFNDSEWRRFTEQYLDNPSDGILDKTRKIHIDYICDFIFDDERLENIYLIDKKNLMRNKVQIIQQFEQAGSHANRYDVTILVNGLPLVQIELKKRGVAIREAFNQIHRFSKESFNSENSLFKYLQLFVISNGTDTRYFANTTKRDKNSFDFTMNWAKSDNTLIKDLKDFTATCFQKHTLLNVLVNYSVFDSSQTLLVMRPYQIAATERILWKIKSSFTAKNWSKPESGGYIWHTTGSGKTLTSFKAARLATELDFIDKVFFVVDRKDLDYQTMKEYQRFSPDSVNGSENTAGLKRNLDKDDNKIIVTTIQKLNNLMKAESDLPVYNQQVVFIFDECHRSQFGEAQKNLKKKFKRYYQFGFTGTPIFPENALGSETTASVFGRELHSYVITDAIRDEKVLKFKVDYNDVRPQFKSLETETDEKKLSAAENQQAFLHPMRIQEITQYILNNFRQKTHRTFPGSKGFNAMLAVSSVDAAKAYYATFKRLQEEAANKSATYKPLRIATIFSFAANEEQNAIGEISDETFDTSAMDSSAKEFLDAAIREYNSHFKTNFSTDSNGFQNYYRDLAQRVKNQDIDLLIVVGMFLTGFDAPTLNTLFVDKNLRYHGLMQAFSRTNRIYDATKTFGNIVTFRDLERSTIDAITLFGDKNTKNVVLEKSYTEYMEGFTDAATGEAKRGFMTVVSELEQRFPDPTSIESEKEKKDFVKLFGEYLRAENILQNYDEFATLKALQQIDLSDPVAVEKFKAEHYVDDEKFAELQTIRLPADRKIQDYRSAYNDIRDWQRREKEAEKKEKSTTDWDDVVFEVDLLKSQEINLDYILGLIFEHNRQNKGKGEMIEEVKRLIRSSLGNRAKEGLVVDFIQQTNLDDLPDKASIIDAFFTFAQREQQREAEALIKEENLNEDAAKRYIRTSLKREYATENGTELNETLPKLSPLNPQYKTKKQAVFQKIVSFIEKFKGVGGKI

These binders were tested against EcoR124I MTase (M2S1 complex) (UniProt P10484) (assay: native gel or EMSA).
UniProt P10484, sequence (P10484 whole entry, chain 1 of 2): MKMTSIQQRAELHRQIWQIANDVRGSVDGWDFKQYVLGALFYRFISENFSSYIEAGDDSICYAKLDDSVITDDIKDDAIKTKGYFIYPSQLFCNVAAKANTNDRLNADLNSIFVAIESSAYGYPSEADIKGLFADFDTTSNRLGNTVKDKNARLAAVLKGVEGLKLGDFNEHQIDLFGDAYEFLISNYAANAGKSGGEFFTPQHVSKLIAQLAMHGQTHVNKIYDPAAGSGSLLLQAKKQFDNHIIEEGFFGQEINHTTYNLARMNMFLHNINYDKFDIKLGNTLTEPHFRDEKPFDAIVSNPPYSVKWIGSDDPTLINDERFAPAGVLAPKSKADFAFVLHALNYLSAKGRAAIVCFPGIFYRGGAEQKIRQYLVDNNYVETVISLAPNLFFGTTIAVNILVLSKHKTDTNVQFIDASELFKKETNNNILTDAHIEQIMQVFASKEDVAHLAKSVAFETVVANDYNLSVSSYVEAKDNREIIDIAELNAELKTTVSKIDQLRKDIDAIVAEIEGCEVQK
UniProt P10484, sequence (P10485 whole entry, chain 2 of 2, further chain): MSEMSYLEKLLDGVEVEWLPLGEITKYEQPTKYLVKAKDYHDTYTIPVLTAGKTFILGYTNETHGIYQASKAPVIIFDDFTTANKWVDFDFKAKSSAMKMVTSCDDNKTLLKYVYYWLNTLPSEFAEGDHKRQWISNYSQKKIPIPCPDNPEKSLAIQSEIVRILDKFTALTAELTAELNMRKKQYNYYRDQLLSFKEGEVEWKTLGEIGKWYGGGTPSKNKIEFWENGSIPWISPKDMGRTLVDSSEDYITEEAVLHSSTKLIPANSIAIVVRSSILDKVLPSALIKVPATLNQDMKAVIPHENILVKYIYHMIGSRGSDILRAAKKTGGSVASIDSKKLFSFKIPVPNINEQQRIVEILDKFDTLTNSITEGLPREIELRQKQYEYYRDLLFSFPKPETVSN
Binder B1 has a K1,app (first HsdR on the DNA-bound MTase, R1 complex) of 15 nM. With B2 the K1,app (first HsdR on the DNA-bound MTase, R1 complex) was 10 nM. B3 showed a K1,app (first HsdR on the DNA-bound MTase, R1 complex) of 15 nM. B4 showed a K1,app (first HsdR on the DNA-bound MTase, R1 complex) of 14 nM.
